Reference: PMC6101569

What was measured:
[1] = target: APLF^AD labelled with the fluorescent tag NT-647 (human) (UniProt Q8IW19); assay: MST
[2] = target: APLF acidic domain (APLF^AD), Homo sapiens APLF residues 450-511, wild type (human) (UniProt Q8IW19); assay: cross-linking
APLF acidic domain (APLF^AD), Homo sapiens APLF residues 450-511, wild type (human), sequence (Q8IW19 450-511): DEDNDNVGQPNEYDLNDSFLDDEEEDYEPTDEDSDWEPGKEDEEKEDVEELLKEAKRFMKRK

APLF^AD labelled with the fluorescent tag NT-647 (human), sequence (Q8IW19 450-511): as above

Substance	KD,1 (high-affinity binding event, sequential-binding model) [1]	stoichiometry N [2]	KD of the secondary binding over KD of the high-affinity binding (fold) [1]
H2A-H2B histone dimer from Drosophila melanogaster (from UniProt P84051 2-121; P02283 2-123) (complex)	0.8 µM	1	
(H3-H4)2 histone tetramer from Drosophila melanogaster (from UniProt P02299 2-136; P84040 2-103) (complex)	1.4 µM		50 fold
